Our source for the EC50 values is patent WO2014196658A1 (dated 2014).

In test [1] the target is T1, human aquaporin 4 (hAQP4) M23 isoform (human, UniProt P55087 1-323). Nature of the test: ELISA on plates coated with budded baculovirus expressing human AQP4 M23. A general note: In an ELISA, binding on a coated surface is turned into a signal by an enzyme label.
Test [2] has as its target T1, human aquaporin 4 (hAQP4) M23 isoform. Put plainly: cell ELISA on live CHO cells expressing hAQP4 M23, 37 °C 1 h, 4-parameter logistic fit.

Where a chain is given by its changes, count along the chain named.

T1 sequence (P55087 whole entry, canonical isoform): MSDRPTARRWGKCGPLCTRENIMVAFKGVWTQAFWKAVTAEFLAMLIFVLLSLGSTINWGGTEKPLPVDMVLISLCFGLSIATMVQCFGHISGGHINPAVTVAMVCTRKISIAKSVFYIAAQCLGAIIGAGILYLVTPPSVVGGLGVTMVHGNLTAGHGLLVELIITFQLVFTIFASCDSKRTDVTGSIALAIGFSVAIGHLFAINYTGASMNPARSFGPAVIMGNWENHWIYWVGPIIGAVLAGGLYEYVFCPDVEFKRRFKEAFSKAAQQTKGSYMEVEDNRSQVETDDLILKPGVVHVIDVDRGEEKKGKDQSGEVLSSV

B1: anti-aquaporin 4 monoclonal antibody produced by hybridoma clone C9401 (antibody, V domains shown)
VH: QVQLQQSGPELVKPGASVRISCKASGYTFTNYYIHWVKQRPGQGLEWIGWIYPGNVNTKKNEKFKGKATLTADKSSSTAYMQLSSLTSEDSAVYFCARGVPYAFWGQGTLVTVSA
VL: DIVLTQSPASLAVSLGQRATISCRASKSVDSYGNSFMHWYQQKPGQPPKLLIYRASNLESGIPARFSGSGSRTDFTLTINPVEADDVATYYCQQSNEDPPTFGGGTKLEIKR
notes: also called C9401 antibody; original antibody (C9401)
For the molecule B1, the EC50 (as a rule, the concentration at which the effect is half-maximal) in test [1] came to 166 pM; in test [2], 162 pM.

B2: anti-aquaporin 4 monoclonal antibody produced by hybridoma clones D15107 and D15129 (same antibody) (antibody, V domains shown)
VH: QVQLKESGPGLVAPSQSLSITCTVSGFSLTSYGVHWVRQPPGKGLEWLGVIWAGRRTNYNSALMSRLSISKDNSKSQVFLKMNSLQTDDTAMYYCARGDGIFPYWGQGTLVTVSA
VL: B1 VL with A9G, K27E, P44S, P100F, G104S
notes: Mouse antibody from hybridomas; They are therefore one molecule here, and the rows keep the printed label; also called D15107 (D15129); D15107/D15129
B2 returned an EC50 in test [2] of 150 pM.

B3: anti-aquaporin 4 monoclonal antibody produced by hybridoma clone D12092 (antibody, V domains shown)
VH: QVQLKESGPGLVAPSQSLSITCTVSGFSLTRYGVHWVRQPPGKGLEWLVVIWSDGSTTYNSALKSRLSISKDNSKSQVFLKMNSLQTDDTAIYYCARGPPFAYWGQGTLVTVST
VL: B1 VL with D86A, N96Y, G104A
notes: Mouse antibody from a hybridoma; also called D12092 antibody
On to B3, for which the EC50 in test [2] came out at 116 pM.
